Measurements published in publication PMC11480844.

B1: H2-Kb / E8 (parent)
chain 1: GDSVTQTEGLVTVTEGLPVKLNCTYQTTYLTIAFFWYVQYLNEAPQVLLKSSTDNKRTEHQGFHATLHKSSSSFHLQKSSAQLSDSALYYCALNTNTGKLTFGDGTVLTVKP
chain 2: EAAVTQSPRNKVAVTGGKVTLSCNQTNNHNNMYWYRQDTGHGLRLIHYSYGAGSTEKGDIPDGYKASRPSQENFSLILELATPSQTSVYFCASGDWGAGTGQLYFGEGSKLTVL
chain 3: not shown
chain 4: IQKTPQIQVYSRHPPENGKPNILNCYVTQFHPPHIEIQMLKNGKKIPKVEMSDMSFSKDWSFYILAHTEFTPTETDTYACRVKHDSMAEPKTVYWDRDM
chain 5: SIINFEKL
B2: H2-Kb / H5 (parent)
chain 1: GEQVEQRPPHLSVREGDSAVIICTYTDPNSYYFFWYKQEPGAGLQLLMKVFSSTEINEGQGFTVLLNKKDKQLSLNLTAAHPGDSAVYFCAVSNYGSSGNKLIFGIGTLLSVKP
chain 2: EAAVTQSPRNKVAVTGGKVTLSCNQTNNHNNMYWYRQDTGHGLRLIHYSYGAGSTEKGDIPDGYKASRPSQENFSLILELATPSQTSVYFCASGDRERDTQYFGPGTRLLVL
chain 3: not shown
chain 4: B1 chain 4
chain 5: SIINFEKL

Variants of: B1
Assay: % of reporter cells activated (NFAT-GFP), raw
Conditions: with E8; scale: % of reporter cells activated
Also: test concentration or dose not given here.

Ratio to parent: each site, then its substitutions
chain 5 E6: N 0.03; C 0.0282; T 0.0257; M 0.0317; A 0.159; I 0.0166; P 0.169; H 0.0243; Q 0.115; L 0.0214; G 0.193; W 0.0496; Y 0.00591; V 0; S 0.0471

Variants of: B2
Assay: % of reporter cells activated (NFAT-GFP), raw
Conditions: with H5; scale: % of reporter cells activated

Ratio to parent of substitutions, site by site:
chain 5 S1: K 0.602; L 0.398; R 0.852; W 0.332; V 0.388; D 0.281; T 0.587; H 0.474; M 2.39; A 0.474; P 0.383; G 0.25; Y 0.27; E 0.281; Q 0.469; N 0.352; F 0.638; I 0.454; C 0.316
chain 5 I2: N 0.362; Q 0.454; F 0.653; P 0.327; L 0.607; H 0.332; S 0.75; E 0.408; G 0.505; M 0.684; V 1.03; R 0.24; D 0.505; K 0.388; W 0.378; Y 0.352; A 0.663; T 0.526; C 0.74
chain 5 F5: Y 0.765; V 0.617; P 0.459; L 0.663; G 0.316; M 1.13; A 0.923; N 0.48; C 0.816; R 0.311; K 0.362; E 0.352; W 0.515; Q 0.638; H 0.719; D 0.439; I 2.01; S 0.531; T 0.367
chain 5 E6: S 0.444; Q 0.357; F 0.296; G 0.306; N 0.301; H 0.643; L 0.265; R 0.362; Y 0.332; D 0.235; A 0.454
